In test [1] the target is T1, His6-RPN1 WT (human, UniProt Q13200 1-908). Nature of the test: BLI. A general note: Biolayer interferometry detects binding as a change in optical thickness at a sensor tip.
The target in test [2] is T1, His6-RPN1 WT. Nature of the test: BLI; NUB1L pre-bound to GST-FAT10; unit inferred, M assumed.
Test [3] addresses T1, His6-RPN1 WT. Nature of the test: BLI; in presence of GST; unit inferred, M assumed.

Three molecules from article PMC10185811 (2023) can be followed below.

T1 sequence (Q13200 whole entry): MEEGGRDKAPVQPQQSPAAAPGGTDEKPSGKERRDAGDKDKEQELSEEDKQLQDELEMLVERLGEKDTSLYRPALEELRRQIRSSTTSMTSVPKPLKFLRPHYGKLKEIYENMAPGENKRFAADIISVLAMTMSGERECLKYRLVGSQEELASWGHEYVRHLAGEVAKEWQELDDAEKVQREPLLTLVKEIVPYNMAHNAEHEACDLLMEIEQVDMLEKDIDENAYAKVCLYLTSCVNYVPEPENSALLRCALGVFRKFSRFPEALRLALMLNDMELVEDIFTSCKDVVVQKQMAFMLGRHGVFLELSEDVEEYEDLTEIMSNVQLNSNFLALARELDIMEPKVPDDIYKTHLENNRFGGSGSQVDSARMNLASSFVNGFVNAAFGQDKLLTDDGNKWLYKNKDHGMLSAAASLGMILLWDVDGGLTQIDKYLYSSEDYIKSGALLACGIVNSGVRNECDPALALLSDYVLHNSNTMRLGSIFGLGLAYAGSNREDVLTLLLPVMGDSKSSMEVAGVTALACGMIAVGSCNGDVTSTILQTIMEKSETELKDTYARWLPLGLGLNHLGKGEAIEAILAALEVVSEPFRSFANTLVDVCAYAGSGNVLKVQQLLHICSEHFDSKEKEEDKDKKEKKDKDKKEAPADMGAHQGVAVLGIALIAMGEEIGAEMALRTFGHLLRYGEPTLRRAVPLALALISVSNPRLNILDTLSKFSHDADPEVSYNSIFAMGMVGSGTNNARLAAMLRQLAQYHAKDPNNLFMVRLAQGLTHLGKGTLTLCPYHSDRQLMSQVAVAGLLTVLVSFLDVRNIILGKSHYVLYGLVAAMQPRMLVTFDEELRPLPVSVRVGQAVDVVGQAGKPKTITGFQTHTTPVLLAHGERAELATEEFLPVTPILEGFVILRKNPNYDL

B1: GST-FAT10 (natural protein)
chain: MAPNASCLCVHVRSEEWDLMTFDANPYDSVKKIKEHVRSKTKVPVQDQVLLLGSKILKPRRSLSSYGIDKEKTIHLTLKVVKPSDEELPLFLVESGDEAKRHLLQVRRSSSVAQVKAMIETKTGIIPETQIVTCNGKRLEDGKMMADYGIRKGNLLFLACYCIGG
For orientation: Kd means the concentration at which binding is half-saturated. Take B1: in test [1], the Kd came out at 4040 µM.

B2: NUB1L-bound GST-FAT10 (NUB1L co-incubated with GST-FAT10) (complex)
chain 1: MAQKKYLQAKLTQFLREDRIQLWKPPYTDENKKVGLALKDLAKQYSDRLECCENEVEKVIEEIRCKAIERGTGNDNYRTTGIATIEVFLPPRLKKDRKNLLETRLHITGRELRSKIAETFGLQENYIKIVINKKQLQLGKTLEEQGVAHNVKAMVLELKQSEEDARKNFQLEEEEQNEAKLKEKQIQRTKRGLEILAKRAAETVVDPEMTPYLDIANQTGRSIRIPPSERKALMLAMGYHEKGRAFLKRKEYGIALPCLLDADKYFCECCRELLDTVDNYAVLQLDIVWCYFRLEQLECLDDAEKKLNLAQKCFKNCYGENHQRLVHIKGNCGKEKVLFLRLYLLQGIRNYHSGNDVEAYEYLNKARQLFKELYIDPSKVDNLLQLGFTAQEARLGLRACDGNVDHAATHITNRREELAQIRKEEKEKKRRRLENIRFLKGMGYSTHAAQQVLHAASGNLDEALKILLSNPQMWWLNDSNPETDNRQESPSQENIDRLVYMGFDALVAEAALRVFRGNVQLAAQTLAHNGGSLPPELPLSPEDSLSPPATSPSDSAGTSSASTDEDMETEAVNEILEDIPEHEEDYLDSTLEDEEIIIAEYLSYVENRKSATKKN
chain 2: B1 chain
In test [2], B2 had a Kd of 0.432 µM.

B3: NUB1L (NEDD8 ultimate buster 1 long), tagless (natural protein)
chain: B2 chain 1
Consider B3, for which the Kd in test [1] turned out to be 1.71 µM; in test [3], 1.56 µM.
